Source: publication PMC3248438, “Probing the SELEX Process with Next-Generation Sequencing”

Target: Streptavidin (UniProt P22629 25-183)
Assay: SPR; kon 1.5e4 M-1 s-1, koff 2.2e-3 s-1; 1:1 Langmuir fit, chi2 0.535; 900 RU chip; Binding buffer 20 mM Tris, 140 mM NaCl, 5 mM MgCl2, 2 mM CaCl2, 2 mM KCl, 0.05% Tween 20, pH 7.4; SPR at 25 C, 30 ul/min; FLAA 1 h at room temperature
Details: protein: commercial; chain copies: 4

Sequence of Streptavidin (P22629 25-183): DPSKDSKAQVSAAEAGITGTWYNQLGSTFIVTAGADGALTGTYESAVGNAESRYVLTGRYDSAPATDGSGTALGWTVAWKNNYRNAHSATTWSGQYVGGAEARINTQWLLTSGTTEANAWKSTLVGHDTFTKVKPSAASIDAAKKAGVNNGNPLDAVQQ

ATCTCCGATTGCCCCACGACGCAGTGGTCGGAGTTACTTT (ssDNA) [R10#17]
Kd: 140 nM
